The values below are quoted from earlier work in patent US20160354395A1, “INFANT FORMULAS CONTAINING A 2-FUCOSYLATED OLIGOSACCHARIDE FOR TREATMENT OR PREVENTION OF INFLUENZA INFECTION” (NESTEC S.A., priority 2013, published 2016).

The series has as its system influenza virus. To be noted: mice.

B1: Lactoferrin: a protein of the transferrin family, present in milk; given in the diet at 25 g/kg (protein, UniProt P24627 20-708, looked up)
Lactotransferrin: APRKNVRWCTISQPEWFKCRRWQWRMKKLGAPSITCVRRAFALECIRAIAEKKADAVTLDGGMVFEAGRDPYKLRPVAAEIYGTKESPQTHYYAVAVVKKGSNFQLDQLQGRKSCHTGLGRSAGWIIPMGILRPYLSWTESLEPLQGAVAKFFSASCVPCIDRQAYPNLCQLCKGEGENQCACSSREPYFGYSGAFKCLQDGAGDVAFVKETTVFENLPEKADRDQYELLCLNNSRAPVDAFKECHLAQVPSHAVVARSVDGKEDLIWKLLSKAQEKFGKNKSRSFQLFGSPPGQRDLLFKDSALGFLRIPSKVDSALYLGSRYLTTLKNLRETAEEVKARYTRVVWCAVGPEEQKKCQQWSQQSGQNVTCATASTTDDCIVLVLKGEADALNLDGGYIYTAGKCGLVPVLAENRKSSKHSSLDCVLRPTEGYLAVAVVKKANEGLTWNSLKDKKSCHTAVDRTAGWNIPMGLIVNQTGSCAFDEFFSQSCAPGADPKSRLCALCAGDDQGLDKCVPNSKEKYYGYTGAFRCLAEDVGDVAFVKNDTVWENTNGESTADWAKNLNREDFRLLCLDGTRKPVTEAQSCHLAVAPNHAVVSRSDRAAHVKQVLLHQQALFGKNGKNCPDKFCLFKSETKNLLFNDNTECLAKLGGRPTYEEYLGTEYVTAIANLKKCSTSPLLEACAFLTR
In the case of B1, the “number of infiltrated leukocytes recovered from bronchoalveolar lavage fluid” value (day 6) is given as “significantly lower”. Moreover, the lung consolidation score entry (day 6 after infection, vs control mice given water) is on record as “significantly lower”.
